These results are taken from article PMC3943411, “Modular assembly of designer PUF proteins for specific post-transcriptional regulation of endogenous RNA”.

Settings in all cases: protein: recombinant; tags: His-tag (pET28a); label: 5' 6-carboxyfluorescein
In series [1] the target is T1, PUF (S2) (human, UniProt Q14671 828-1176, S863N;N1122C). The series is described as follows: fluorescence polarization/anisotropy; cognate; 1 nM RNA; 20 mM Tris-HCl pH 7.5, 0.5 mM EDTA, 50 mM KCl, 0.1 mg/ml BSA; temperature not stated; protein corrected for active fraction (about 30%); KD mean ± SD, n = 3. Background: Polarisation of emitted light reports the rotation of a fluorescent probe.

The target in series [2] is T2, PUF (S6) (human, UniProt Q14671 828-1176, S863N;C935N;N971C;H972Y;C1007N;N1043C;N1122C).
T2 sequence: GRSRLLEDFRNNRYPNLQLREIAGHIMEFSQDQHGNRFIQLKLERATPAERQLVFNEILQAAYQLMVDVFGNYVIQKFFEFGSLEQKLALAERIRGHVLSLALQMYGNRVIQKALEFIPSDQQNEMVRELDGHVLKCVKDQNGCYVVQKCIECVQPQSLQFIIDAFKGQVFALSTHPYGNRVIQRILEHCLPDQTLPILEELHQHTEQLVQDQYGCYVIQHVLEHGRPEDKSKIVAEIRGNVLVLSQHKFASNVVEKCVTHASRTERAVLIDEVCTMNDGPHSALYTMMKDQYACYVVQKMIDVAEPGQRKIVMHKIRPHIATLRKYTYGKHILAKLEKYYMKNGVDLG
Kind of series: fluorescence polarization/anisotropy; noncognate; 1 nM RNA; 20 mM Tris-HCl pH 7.5, 0.5 mM EDTA, 50 mM KCl, 0.1 mg/ml BSA; temperature not stated; protein corrected for active fraction (about 30%); KD mean ± SD, n = 3.

The target in series [3] is T1, PUF (S2). The series is described as above.
Series [4] addresses T3, PUF (S4) (human, UniProt Q14671 828-1176, C935N;N971C;H972Y;C1007N;N1043C).
T3 sequence: T2 sequence with N36S, C295N
Described as above.

Series [5] has as its target T3, PUF (S4). The series is described as follows: fluorescence polarization/anisotropy; cognate; 1 nM RNA; 20 mM Tris-HCl pH 7.5, 0.5 mM EDTA, 50 mM KCl, 0.1 mg/ml BSA; temperature not stated; protein corrected for active fraction (about 30%); KD mean ± SD, n = 3.
The target in series [6] is T2, PUF (S6). The description is as above.
The target of the next series is T4, PUF (S8) (human, UniProt Q14671 828-1176, S863N;N899S;Q903E;C935N;N971C;H972Y;C1007N;N1043C;S1079N;E1083Q;N1122C).
T4 sequence: T2 sequence with N72S, Q76E, S252N, E256Q
The description is as above.

What is called Kd is the equilibrium constant for the complex coming apart.

Changes are numbered by the printed parent chain.

B1: S2 RNA (AGUAUAUU) (ssRNA)
RNA: CCAGAAUAGUAUAUUAUUCG
As to B1, the Kd with PUF (S2) [1] was found to be 0.76 ± 0.11 nM.

B2: WT RNA (UGUAUAUA) (ssRNA)
RNA: CCAGAAUUGUAUAUAUUCG
As to B2, the Kd with PUF (S6) [2] is 89.6 ± 16.5 nM; with PUF (S2) [3], 6.29 ± 2.8 nM; with PUF (S4) [4] it was 5.77 ± 1.33 nM.

B3: S4 RNA (UGAUAUUA) (ssRNA)
RNA: CCAGAAUUGAUAUUAUUCG
B3: in the series with PUF (S4) [5], the Kd came to 0.59 ± 0.1 nM.

B4: S6 RNA (AGAUAUUU) (ssRNA)
RNA: CCAGAAUAGAUAUUUUUCG
In the case of B4, in the series with PUF (S6) [6], the Kd was determined as 6.05 ± 0.25 nM.

B5: S8 RNA (AUAUAUGU) (ssRNA)
RNA: CCAGAAUAUAUAUGUUUCG
Regarding B5, the Kd in the series with PUF (S8) turned out to be 2.79 ± 0.69 nM.
